# From patent US20210340273A1 (INHLBRX, published 2021)
# B1: cx3499, 5T4-targeted constrained CD3 engaging construct with a 41BB binding domain (bispecific antibody)
# chain 1: QVQLVQSGGGLVQAGGSLRLSCAASRRPFSSKTMAWFRQTPGKEREFVAAVRWIGGATRYTDSVKGRFSISKDNAINTVYLQMNSLKSEDTAVYYCAAGQAWGTKFTDYSDWGQGTQVTVKPDKTHTCPPCPAPELLGGPSVFLFPPKPKDTLMISRTPEVTCVVVDVSHEDPEVKFNWYVDGVEVHNAKTKPREEQYNSTYRVVSVLTVLHQDWLNGKEYKCKVSNKALPAPIEKTISKAKGQPREPQVYTLPPCRDELTKNQVSLWCLVKGFYPSDIAVEWESNGQPENNYKTTPPVLDSDGSFFLYSKLTVDKSRWQQGNVFSCSVMHEALHNHYTQKSLSLSPTGGSGGGGIEPDIGGSGGSEVQLVESGGGLVQPGGSLRLSCAASGFTFNTYAMNWVRQAPGKCLEWVARIRSKYNNYATYYADSVKGRFTISRDDAKNTLYLQMSSLRAEDTAVYYCVRHGNFGNSYVSWFAYWGQGTLVTVKPQVQLVQSGGGLVQAGDSLTLSCAVSERPFGTYAMGWFRQAPGRERDLVAAVSRNGGASQYGDSVKGRFSISRDNIKNTMYLQMNSLKPEDTAVYYCAARSAAYSRSSEVYTGKDEYYYWGQGTQVTVKP
# chain 2: not shown
# notes: Heterodimeric multispecific construct (5T4 x CD3 x 41BB)
# B2: cx3264, 5T4-targeted constrained CD3 engaging construct with a 41BB binding domain (bispecific antibody)
# chain 1: QVQLQESGGGLVQAGGSLRLSCAASRRPFSSKTMAWFRQTPGKEREFVAAVRWIGGATRYTDSVKGRFSISKDNAINTVYLQTNSLKSEDTAVYYCAAGQTWGTKFTDYSDWGQGTLVTVKPDKTHTCPPCPAPELLGGPSVFLFPPKPKDTLMISRTPEVTCVVVDVSHEDPEVKFNWYVDGVEVHNAKTKPREEQYNSTYRVVSVLTVLHQDWLNGKEYKCKVSNKALPAPIEKTISKAKGQPREPQVYTLPPCRDELTKNQVSLWCLVKGFYPSDIAVEWESNGQPENNYKTTPPVLDSDGSFFLYSKLTVDKSRWQQGNVFSCSVMHEALHNHYTQKSLSLSPTGGSGGGGIEPDIGGSGGSEVQLVESGGGLVQPGGSLRLSCAASGFTFNTYAMNWVRQAPGKCLEWVARIRSKYNNYATYYADSVKGRFTISRDDAKNTLYLQMSSLRAEDTAVYYCVRHGNFGNSYVSWFAYWGQGTLVTVKPQVQLQESGGGLVQAGGSLRLSCAASRRPFSSKTMAWFRQTPGKEREFVAAVRWIGGATRYTDSVKGRFSISKDNAINTVYLQTNSLKSEDTAVYYCAAGQTWGTKFTDYSDWGQGTLVTVKP
# chain 2: not shown
# B3: hz12E9v9 sdAb-Fc (Fc fusion)
# chain: EVQLVESGGGEVQPGGSLRLSCAASGRPFSSKTMAWFRQAPGKEREFVAAVRWIGGATRYTESVKGRFTISRDNAKNTVYLQMSSLRAEDTAVYYCAAGQAWGTKFTDYSDWGQGTLVTVKP
# notes: Humanized variant of 12E9; also called hz12E9v09; hz12E9v9-Fc; not shown: human Fc
# B4: hz16G10v11 sdAb-Fc (Fc fusion)
# chain: EVQLVESGGGEVQPGGSLRLSCAASGRPFSSYAMGWFRQAPGKERETVAAVSRNAGSSYYAESVKGRFTISRDNAKNTVYLQMSSLRAEDTAVYYCAARSAAYSRSSETYTEKHDYTYWGQGTLVTVKP
# notes: Humanized variant of 16G10, linked to a human Fc; also called hz16G10v11-Fc; cx7885; not shown: human Fc
# B5: hz14B5v17 sdAb-Fc (Fc fusion)
# chain: EVQLVESGGGEVQPGGSLRLSCAASERPFGTYAMGWFRQAPGKERDLVAAVSRNAGASYYAESVKGRFTISRDNAKNTVYLQMSSLRAEDTAVYYCAARSAAYSRSSEVYTGKDEYYYWGQGTLVTVKP
# notes: Humanized variant of 14B5, linked to a human Fc; not shown: human Fc
# Legend:
# [1] = target: T1, human 5T4 (trophoblast glycoprotein), endogenous on the cell surface (human, UniProt Q13641 32-420); experiment: printed as Affinity 5T4; apparent affinity from flow cytometry titration on Ovcar-5 cells
# T1 construct: also called TPBG; 5T4 oncofetal antigen
# T1 sequence: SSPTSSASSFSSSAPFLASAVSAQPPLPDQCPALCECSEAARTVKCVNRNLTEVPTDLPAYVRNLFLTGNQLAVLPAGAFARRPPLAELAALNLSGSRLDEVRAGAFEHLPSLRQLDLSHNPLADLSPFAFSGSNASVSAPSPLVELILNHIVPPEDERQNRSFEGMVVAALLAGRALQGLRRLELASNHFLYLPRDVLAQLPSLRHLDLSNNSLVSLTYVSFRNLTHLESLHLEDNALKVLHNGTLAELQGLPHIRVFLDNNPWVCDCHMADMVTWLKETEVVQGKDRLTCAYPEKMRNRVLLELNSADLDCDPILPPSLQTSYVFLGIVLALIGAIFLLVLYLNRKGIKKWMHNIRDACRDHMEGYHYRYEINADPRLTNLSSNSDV
# Protocol: Binding of exemplary 5T4-targeting constrained CD3 engaging constructs set forth in Table E3 to CD3 on the surface of primary T cells and 5T4 expressing cells (Ovcar-5) was assessed by flow cytometry. The T cells were primary T-cells that were negatively enriched from PBMCs isolated from healthy human donor leukopaks. Bound construct was detected with fluorophore-conjugated secondary antibodies specific for the human Fc (anti-human IgG APC secondary antibody) and binding was measured by flow cytometry. Cells incubated with secondary antibody only served as negative controls. The results, from flow cytometry histograms displaying normalized cell counts versus fluorescence at 200 nM of each construct, are shown in FIG. 4A (cx3253), FIG. 4B (cx3264), FIG. 4C (cx3497), FIG. 4D (cx3499), FIG. 4E (cx3547), FIG. 4F (cx3546), FIG. 4G (cx4224), FIG. 4H (cx4913), FIG. 4I (cx3265), […] (cx4912), FIG. 4K (cx3262), FIG. 4L (cx4911), and FIG. 4M (cx4910). […] However, as shown in the top right and bottom panels of each of the figures, the same constructs were not able to bind to T cells in isolation.
# Table E4 summarizes the affinity of exemplary molecules for 5T4 or CD3, as determined from flow cytometry, in these studies.
# [2] = target: T1, human 5T4 (trophoblast glycoprotein), …; experiment: flow cytometry on 5T4-positive OVCAR5 (Ovcar-5) cells, anti-human IgG secondary; titration
# Protocol: FIGS. 4A-4M depict the binding of various 5T4-target constrained CD3 engaging constructs to the 5T4 positive Ovcar-5 cell line (top left) and the lack of binding to primary human T-cells (top right). […] Binding was assessed by flow cytometry using an anti-human IgG APC secondary antibody. The histograms display the normalized cell counts vs fluorescence at 200 nM of each construct.
# Binding of exemplary 5T4-targeting constrained CD3 engaging constructs set forth in Table E3 to CD3 on the surface of primary T cells and 5T4 expressing cells (Ovcar-5) was assessed by flow cytometry. The T cells were primary T-cells that were negatively enriched from PBMCs isolated from healthy human donor leukopaks. Bound construct was detected with fluorophore-conjugated secondary antibodies specific for the human Fc (anti-human IgG APC secondary antibody) and binding was measured by flow cytometry. Cells incubated with secondary antibody only served as negative controls. […] The results, from flow cytometry histograms displaying normalized cell counts versus fluorescence at 200 nM of each construct, are shown in FIG. 4A (cx3253), FIG. 4B (cx3264), FIG. 4C (cx3497), FIG. 4D (cx3499), FIG. 4E (cx3547), FIG. 4F (cx3546), FIG. 4G (cx4224), FIG. 4H (cx4913), FIG. 4I (cx3265), […] (cx4912), FIG. 4K (cx3262), FIG. 4L (cx4911), and FIG. 4M (cx4910). […]
# [3] = target: T2, CD3 on the surface of primary human T cells or Jurkat reporter cells (human, UniProt P07766 23-207); experiment: printed as Affinity CD3; flow cytometry titration on primary human T cells
# T2 construct: whole, on cells; also called CD3 epsilon
# [4] = target: T3, murine 5T4 construct (Mu), full 5T4 coding region fused to an intracellular Citrine tag, on transfected CHO … (mouse, UniProt Q9Z0L0 32-426); experiment: flow cytometry on CHO cells transiently transfected with the 5T4 construct
# T3 construct: also called fully murine construct; mouse 5T4 antigen; not shown: intracellular Citrine tag
# T3 sequence: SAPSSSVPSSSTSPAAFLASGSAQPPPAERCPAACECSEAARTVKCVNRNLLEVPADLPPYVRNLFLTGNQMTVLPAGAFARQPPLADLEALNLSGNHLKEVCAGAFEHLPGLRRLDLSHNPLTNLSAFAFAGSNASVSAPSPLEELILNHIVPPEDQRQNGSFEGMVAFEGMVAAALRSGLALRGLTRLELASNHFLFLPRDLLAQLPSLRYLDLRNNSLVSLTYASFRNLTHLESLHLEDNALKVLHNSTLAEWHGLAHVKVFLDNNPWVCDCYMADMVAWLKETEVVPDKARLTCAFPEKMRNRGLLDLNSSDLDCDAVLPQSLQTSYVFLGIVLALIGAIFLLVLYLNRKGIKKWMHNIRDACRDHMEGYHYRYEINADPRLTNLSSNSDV
# Source text: (§1) In order to determine the location of the epitope recognized by these sdAbs, various mouse:human chimeric 5T4 constructs were generated, wherein various portions of the murine extracellular domain of 5T4 were replaced with that of human 5T4. The constructs were generated by grafting a nucleic acid sequence encoding the specific region of human 5T4 into the cognate region of mouse 5T4 in a mammalian expression plasmid encoding the full 5T4 coding region (extracellular domain, transmembrane domain, intracellular domain) fused to an intracellular Citrine tag. […] CHO cells were transiently transfected with these constructs to enable cell surface expression, and binding was monitored by flow cytometry.
# [5] = target: T4, human 5T4 construct (Hu), full 5T4 coding region fused to an intracellular Citrine tag, on transfected CHO … (human, UniProt Q13641 32-420); experiment: as above
# T4 construct: also called fully human construct; not shown: intracellular Citrine tag
# T4 sequence: T1 sequence
# Source text: as §1
# hmc5T4.1 = target: T5, hmc5T4.1; experiment: as above
# T5 construct: the rest is mouse 5T4; also called chimeric hmc5T4.1; hybrid mouse/human 5T4 with human residues 1-173 of the extracellular domain; not shown: intracellular Citrine tag fused to the full coding region
# T5 chain: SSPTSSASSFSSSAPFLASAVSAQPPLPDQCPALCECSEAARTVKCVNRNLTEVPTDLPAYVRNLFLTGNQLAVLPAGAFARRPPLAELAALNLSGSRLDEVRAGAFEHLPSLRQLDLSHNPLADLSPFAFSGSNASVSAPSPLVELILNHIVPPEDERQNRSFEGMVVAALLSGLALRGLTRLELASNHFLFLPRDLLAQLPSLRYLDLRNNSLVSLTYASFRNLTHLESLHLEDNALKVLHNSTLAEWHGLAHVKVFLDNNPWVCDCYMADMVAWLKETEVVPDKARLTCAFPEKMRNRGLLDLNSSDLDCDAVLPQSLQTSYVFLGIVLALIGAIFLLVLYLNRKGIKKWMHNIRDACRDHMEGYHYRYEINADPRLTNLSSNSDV
# Source text: as §1
# hmc5T4.2 = target: T6, hmc5T4.2; experiment: as above
# T6 construct: the rest is mouse 5T4; also called chimeric hmc5T4.2; not shown: intracellular Citrine tag fused to the full coding region
# T6 chain: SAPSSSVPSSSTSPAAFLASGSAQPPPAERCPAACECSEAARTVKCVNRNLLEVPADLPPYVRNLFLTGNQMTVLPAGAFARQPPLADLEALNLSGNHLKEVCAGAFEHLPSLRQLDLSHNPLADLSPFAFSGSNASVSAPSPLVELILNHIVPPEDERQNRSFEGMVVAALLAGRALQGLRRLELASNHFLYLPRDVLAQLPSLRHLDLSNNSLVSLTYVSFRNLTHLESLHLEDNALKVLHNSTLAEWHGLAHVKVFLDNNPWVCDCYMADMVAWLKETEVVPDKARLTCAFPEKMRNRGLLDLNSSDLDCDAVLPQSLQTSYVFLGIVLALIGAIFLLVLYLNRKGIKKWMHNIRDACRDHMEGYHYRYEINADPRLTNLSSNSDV
# Source text: as §1
# [6] = target: T3, murine 5T4 construct (Mu), full 5T4 …; experiment: flow cytometry on CHO cells transfected with the fully murine 5T4 construct (Mu, FIG. 26C)
# Source text: as §1
# [7] = target: T1, human 5T4 (trophoblast glycoprotein), …; experiment: flow cytometry, sdAb-Fc on 5T4 expressing T47D cells
# [8] = target: T4, human 5T4 construct (Hu), full 5T4 …; experiment: flow cytometry on CHO cells transfected with human, mouse and chimeric 5T4 constructs
# Source text: as §1
# T2 sequence (P07766 23-207): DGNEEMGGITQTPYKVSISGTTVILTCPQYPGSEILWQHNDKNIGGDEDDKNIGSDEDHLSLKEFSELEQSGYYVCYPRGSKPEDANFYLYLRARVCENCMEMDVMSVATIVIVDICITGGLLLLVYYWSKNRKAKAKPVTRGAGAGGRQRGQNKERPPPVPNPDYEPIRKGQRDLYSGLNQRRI
binder,measurement,setting,value
B1,Kd,[1],0.653 nM
same,EC50 (read off the curve),[2],~0.7 nM
B2,Kd,[1],0.145 nM
same,Kd,[3],> 200 nM
B3,binding result,[4],no binding (tested: about 500 nM)
same,EC50 (read off the curve),[5],~1 nM
same,EC50 (read off the curve),hmc5T4.1,~0.8 nM
B4,EC50 (read off the curve),hmc5T4.2,~2 nM
same,binding result,[4],no binding (tested: about 500 nM)
same,EC50 (read off the curve),[5],~3 nM
B5,binding result,[6],no binding
same,binding result,[7],binds
same,binding result,[8],binds
